Assays:
purified protein [1] = substrate: O=C(O)CCC(=O)C(=O)O; test: purified protein; assay type: biochemical, Streptomyces hygroscopicus; details: apparent; co-substrate validamycin A, Fe(II)
purified protein [2] = substrate: OCC1=C[C@H](N[C@H]2C[C@H](CO)[C@@H](O[C@@H]3O[C@H](CO)[C@@H](O)[C@H](O)[C@H]3O)[C@H](O)[C@H]2O)[C@H](O)[C@@H](O)[C@@H]1O; test: purified protein; assay type: biochemical, Streptomyces hygroscopicus; details: apparent; co-substrate α-ketoglutarate, Fe(II); hydroxylation at C-6'

B1: VldW (Streptomyces hygroscopicus subsp. limoneus) (protein)
chain: MTGSVPIVDLEAWRAADEENRASLAEIIDGALHTVGTFLLAGHGVPAELTARMRTAGRSFFDLPWEKKEPHAVQRPHDNGWRGLVKHRTDTIEGTGGAPDLHEAFHMGPTHRTGDDAFDALYYPANKWPAELPELRETALAYTAHMTRVAGAVMEMLAGVLGLEPAFFTSRCEHATWTQSVNWYPSLDTVGQTAEGQMRVGPHTDFGTITLLDRQQGVSGLEVWSEEDGWFAPPFVEGTLLVNLGDLMHQWTDGRWRSLRHRVLAPSASAPQEELVSLVYFFDADPEAELVPLAAPVGGGAGMPTVNVGETILKKNIQMLTDLKGHGLFQGELSLSRPGSADSPGSSPADDHPSRPGRHPAQGPQ
- Km (purified protein [1]): 19 ± 3.5 µM
- kcat (purified protein [1]): 0.97 ± 0.14 min⁻¹
- Km (purified protein [2]): 303 ± 36 µM
- kcat (purified protein [2]): 0.97 ± 0.14 min⁻¹

Reference: PMC3517013
